Fewer inactive variants are shown than the library holds.
B1: TPR 5TU (parent)
chain: GGAUCUUCUCGAUCUAACAAAAAAGACAAAUCUGCCACAAAGCUUGAGAGCAUCUUCGGAUGCAGAGGCGGCAGCCUUCGGUGGCGCGAUAGCGCCAACGUUCUCAACUAUGACACGCAAAACGCGUGCUCCGUUGAAUGGAGUUUAUCAUG

Variants of: B1
Test: polymerase ribozyme fitness, log enrichment relative to wild type (log ratio); higher = more active; in vitro selection for triplet polymerase activity
In short: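 Streptavidin-bead capture of gel-excised extended constructs, followed by RT-PCR, closed a single triplicate in vitro selection round. That round began by annealing PCR-built, transcribed mutant libraries of each subunit of a heterodimeric triplet polymerase ribozyme with a biotinylated primer, the partner subunit and triplets, then incubating them frozen at −7 °C. After Illumina sequencing of inputs and outputs, genotypes needed ≥10 input reads and ≥1 read per output. Fitness is the base-2 logarithm of genotype enrichment over wild-type enrichment, using inverse-variance-weighted replicate averages.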

Point of comparison: U139G C149G, “polymerase ribozyme fitness (log ratio)” value -3.88. Against it:
- U134C U144G — higher, 0.895
- G128U — higher, -2.53
- G128A — higher, -2.74
- G128C — higher, -2.21
- G133C U144C C149U — within 0.2 log units, -3.98
- C149U A150G — higher, -2.95
- G143U — higher, -1.84
- G143A — higher, -0.315
- G143C — higher, -1.78
- G124C G143U — higher, -3.2
- G141C G143C — lower, ≤ -4.2
- A138C U144G — within 0.2 log units, -3.7
- A120C G141C — higher, -0.144
- G126U U135C — higher, -1.61
- A121U G143C — higher, -1.7
- A122G U139C — lower, -4.09
- G133U U148G — lower, -4.1
- A119U U139C — within 0.2 log units, -3.94
- C131A A138C U139G — higher, -3.67
- U134A G140A — higher, -3.58
- A137U U144G — lower, -4.2
- C129G G143A — higher, -2.23
- G136C U146C — higher, -2.93
- C125U U148G — lower, ≤ -4.2
- C125A U146G — higher, -0.126
- C125A U146C — higher, -0.394
- U127C U139C U151G — lower, ≤ -4.2
- G126A A138C — within 0.2 log units, -3.73
- G141A A147C — higher, -3.63
- A121G — higher, -0.0563
- A121C — higher, 0.117
- A121U — higher, -0.0614
- G126A G133C U146C — higher, -2.5
- U146C A150U — higher, 0.851
- A147G — higher, -0.913
- A147U — higher, 1.1
- A147C — higher, 0.176
- U127G U134C — higher, -3.03
- G136U G143C — higher, -3.26
- U127G A147U — within 0.2 log units, -3.92
- A121G A122C A137C — within 0.2 log units, -4.06
- C131U U148C — higher, -2.73
- G140C U144G — higher, -3.51
- C123A G141C — higher, 0.333
- G126U C149U — higher, -1.96
- A122G G143A — higher, -1.03
- U144A U145A — higher, -0.541
- U135C U151A — lower, ≤ -4.2
- A121G G143A A147U — higher, -1.46
- U127G G140A — lower, -4.15
- A121G U144C — higher, -0.191
- C125G A142C — within 0.2 log units, -4.01
- A121C A137U A147G — lower, ≤ -4.2
- C132U U145G — higher, -0.815
- A120U U135C — higher, -2.85
- G143A U145A — higher, -2.03
- U146C U151G — lower, ≤ -4.2
- A121G G141U C149U — within 0.2 log units, -3.72
- G140U U144C — higher, -3.28
- U144C U145C — higher, -0.39
- U130C — higher, 1.27
- U130A — higher, -1.66
- U130G — higher, -2.99
- G124U G140A — within 0.2 log units, -4
- A147U U148A — higher, -2.81
- C125A U134C U148A G152A — lower, -4.13
- G140U G141C — higher, -3.07
- C125G — higher, -0.473
- C125A — higher, -0.171
- C125U — higher, -0.476
- G126A G140A — higher, -3.54
- C125A U148C — higher, -3.48
- C125A U148A — within 0.2 log units, -3.93
- U127A G128U — higher, -3.18
- C132U U139G G140A — higher, 1.22
- U135C U145C — higher, -2.51
- G133U U135A U139G U144G A150U — lower, -4.1
- C125U U145C — higher, -0.634
- G128A G136A — lower, -4.18
- G152C — higher, -2.58
- G152A — higher, -1.77
- G152U — higher, -2.19
- C125U U146G — higher, -1.15
- G141U U146A — higher, 0.37
- A137G G141C — higher, -2.74
- G124U G136A — higher, 0.382
- U135G A137U U139A U151G — lower, ≤ -4.2
- A121G U135A — higher, -0.777
- C132G G133U — higher, -2.9
- G124U — higher, -0.432
- G124A — higher, -0.246
- G124C — higher, -0.922
- G143U G152A — within 0.2 log units, -3.69
- A121C C123A U127C — higher, -1.91
- C125U U134A — higher, -1.89
- G128A G133U — within 0.2 log units, -4
- G126A A142C — higher, -3.28
- A121G U127C — higher, -2.42
- C125G U127A — higher, -3.68
- G126A C132U — higher, -0.105
- C125U G143U — higher, -3.2
- C131G G133U — within 0.2 log units, -3.77
- G124U U134G — higher, -2.98
- U134A — higher, -2.25
- U134C — higher, 0.0692
- U134G — higher, -2.37
- A137U U145A A147C — lower, ≤ -4.2
- A138C A142G — higher, -3.66
- G133U U135G — within 0.2 log units, -4.04
- U135A — higher, -0.939
- U135G — higher, -3.19
- U135C — higher, -1.38
- G124C G136A — higher, -2.84
- U144A — higher, -0.043
- U144G — higher, 0.948
- U144C — higher, 0.0778
- G140A G141A — higher, -3.15
- C123A C132G — higher, -3.17
- U134A A142G U144G — higher, -2.83
- G143C U146A — higher, -3.65

— the RNAGym collection of RNA variant scans (doi:10.1073/pnas.2313332121)
